Square brackets hold non-standard residues; d marks the D form. Primed or numbered codes have the meaning given here. Ends that are not written are not given here. PEG4′ = PEG spacer of 4 units in the linker; PEG8′ = PEG spacer of 8 units in the linker
Assays:
[1] = blood glucose lowering in mice
[2] = target: T1, type B insulin receptor (IR-B) (Homo sapiens, UniProt P06213); assay: Receptor kinase activity (phosphorylation) assay, type B insulin receptor; assay type: cell-based; settings: Table 17
T1 construct: expressed in transfected cells; host or cells: HEK293

[3] = target: T2, type A insulin receptor (IR-A) (Homo sapiens, UniProt P06213); assay: Receptor kinase activity (phosphorylation) assay, type A insulin receptor; assay type: cell-based
T2 construct: expressed in transfected cells; host or cells: HEK293

C8-PEG20K B^1(H5,Y16,L17)25-PEG8-K-PEG4-A^1(N18,N21) (GPEHLCGAELVDALYLVCGDRGFY[PEG8′]K(PEG 20 kDa)[PEG4′]GIVDECCFRSCDLRRLENYCN; ends and bridges not checked) [#38]
duration of action [1]: 24 h | Phosphorylation (EC50) % IR-B [2]: 2.0% | % Insulin Activity IR-A ([3]; Table 12): 14.8% | Phosphorylation (EC50) % IR-A ([3]; Table 17): 14.8% | agonist character at the insulin receptor (type A) ([3]; result in words): full agonist

— US9593156B2 (priority 2012, dated 2017)
